# In paper doi:10.1101/2025.11.14.688508 (bioRxiv, 2025):
# Target: the molecule itself
# Assay: SEC
protein,measurement,value
"DY-647P1-labeled recombinant human Bax single cysteine mutant (S4C, C62S, C126S) (natural protein, cysteine labeling with DY-647P1 (single cysteine mutant; degree of labeling ~74 %)) MDGCGEQPRGGGPTSSEQIMKTGALLLQGFIQDRAGRMGGEAPELALDPVPQDASTKKLSESLKRIGDELDSNMELQRMIAAVDTDSPREVFFRVAADMFSDGNFNWGRVVALFYFASKLVLKALSTKVPELIRTIMGWTLDFLRERLLGWIQDQGGWDGLLSYFGTPTWQTVTIFVAGVLTASLTIWKKMG",binding result,binds
